Laboratory results published in PMC8964686.

Molecular target: Escherichia coli RNA polymerase holoenzyme with σ^70, in the initially stalled complex (E. coli) (UniProt P00579)
Chain of UniProt P00579 (P00579 whole entry, looked up, one chain of several): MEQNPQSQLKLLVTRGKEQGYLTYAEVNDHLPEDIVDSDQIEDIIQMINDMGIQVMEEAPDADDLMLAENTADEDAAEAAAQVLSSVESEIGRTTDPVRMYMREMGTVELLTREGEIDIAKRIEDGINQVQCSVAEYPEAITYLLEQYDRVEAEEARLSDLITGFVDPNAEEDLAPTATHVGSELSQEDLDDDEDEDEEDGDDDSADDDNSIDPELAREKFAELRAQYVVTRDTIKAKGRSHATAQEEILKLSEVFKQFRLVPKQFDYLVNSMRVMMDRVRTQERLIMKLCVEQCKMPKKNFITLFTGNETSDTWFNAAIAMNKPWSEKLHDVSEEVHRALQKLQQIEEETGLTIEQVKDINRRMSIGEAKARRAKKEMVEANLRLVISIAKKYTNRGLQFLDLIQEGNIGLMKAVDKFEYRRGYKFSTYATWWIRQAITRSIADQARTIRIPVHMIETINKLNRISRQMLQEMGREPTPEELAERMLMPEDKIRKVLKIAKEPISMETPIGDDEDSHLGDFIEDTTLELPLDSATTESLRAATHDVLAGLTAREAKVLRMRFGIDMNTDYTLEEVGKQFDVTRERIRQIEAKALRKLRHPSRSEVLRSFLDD

## Rho (ρ) transcription termination factor, wild type (from UniProt P0AG30 1-419) (enzyme)
  time constant of the decrease of stand-by TE as the interval between ISC washing and NTP injection is prolonged: 693 s
